This note sets out measurements from publication PMC4910529 (The EMBO Journal, 2016).

B1: SPOP^28–359 (speckle‐type POZ protein, residues 28–359) (domain or fragment)
chain: KVVKFSYMWTINNFSFCREEMGEVIKSSTFSSGANDKLKWCLRVNPKGLDEESKDYLSLYLLLVSCPKSEVRAKFKFSILNAKGEETKAMESQRAYRFVQGKDWGFKKFIRRDFLLDEANGLLPDDKLTLFCEVSVVQDSVNISGQNTMNMVKVPECRLADELGGLWENSRFTDCCLCVAGQEFQAHKAILAARSPVFSAMFEHEMEESKKNRVEINDVEPEVFKEMMCFIYTGKAPNLDKMADDLLAAADKYALERLKVMCEDALCSNLSVENAAEILILADLHSADQLKTQAVDFINYHASDVLETSGWKSMVVSHPHLVAEAYRSLASA
B2: SPOP mutBACK (SPOP 28–359 Y353E) (domain or fragment)
chain: B1 chain with Y326E
B3: SPOP ΔBACK (domain or fragment)
chain: KVVKFSYMWTINNFSFCREEMGEVIKSSTFSSGANDKLKWCLRVNPKGLDEESKDYLSLYLLLVSCPKSEVRAKFKFSILNAKGEETKAMESQRAYRFVQGKDWGFKKFIRRDFLLDEANGLLPDDKLTLFCEVSVVQDSVNISGQNTMNMVKVPECRLADELGGLWENSRFTDCCLCVAGQEFQAHKAILAARSPVFSAMFEHEMEESKKNRVEINDVEPEVFKEMMCFIYTGKAPNLDKMADDLLAAADKYALERLKVMCEDALCSNLSVENAAEILILADLHSADQLKTQAVDFINYHASDVLETSG

Data set [1] has as its target SPOP mutBTB (SPOP 28–359 L186D L190D L193D I217K) (UniProt O43791). The data set can be described thus: CG-MALS.
Data set [2] has the same target. Put plainly: AUC.
The target of data set [3] is SPOP mutBACK (SPOP 28–359 Y353E) (UniProt O43791). The data set can be described thus: cross-linking.
The target is the same in data set [4]. Put plainly: CG-MALS.
A further data set concerns the target SPOP X‐BACK. The data set can be described thus: CG-MALS.
The data set “CG-MALS” deals with the molecule itself. The data set can be described thus: CG-MALS.
The data set “native MS” deals with the molecule itself. Put plainly: native MS.
For data set [5], the target named is B1. The data set can be described thus: SEC.
In data set [6] the target is B2. Put plainly: fluorescence polarisation. (In general: Fluorescence polarisation rises when a labelled molecule tumbles more slowly, as on binding a larger partner.)
The data set “cross-linking” deals with the molecule itself. The data set can be described thus: cross-linking.

Substitutions are numbered along the chain they refer to. Names may count otherwise. Where no end group is shown, it is not given here.

By Kd is commonly meant a measure of binding affinity in units of concentration. A high value points to lower affinity. By stoichiometry N is commonly meant the number of molecules, sites or subunits per partner or assembly. In data set [1], “SPOP mutBTB (SPOP 28–359 L186D L190D L193D I217K) (from UniProt O43791 28-359) (domain or fragment)” had a Kd of 36 µM and a stoichiometry N of 2. In data set [2], this molecule returned a Kd of 32.5 µM.
For “SPOP mutBACK (SPOP 28–359 Y353E) (from UniProt O43791 28-359) (domain or fragment)”, the stoichiometry N in [3] and in data set [4] was 2 in each case.
For the molecule SPOP X‐BACK, in the data set with SPOP X‐BACK, the Kd turned out to be 118 µM.
Regarding B1, the dissociation constant Kd in “CG-MALS” is 2.4 µM. In addition, in “native MS”, the “stoichiometry N” value turned out to be 8.
As to B2, the binding result in data set [5] is “binds”.
Regarding ENLACDEVTSTTSSSST-NH2 (not fully specified (N-terminus)) [Puc peptide, residues 91–107 of Puckered, fluorescein-labelled], the affinity in [6], expressed as Kd, was 4.1 µM. This lies in the single-digit micromolar range.
For the molecule B3, in “cross-linking”, the “stoichiometry N” value was found to be 2.
